Patent US20140193401A1 (published 2014)
Changes are numbered by the printed parent chain.

What was measured:
[1] = target: T1, PTx-S1-220 E210A (Bordetella pertussis, UniProt P04977 35-254); test: SPR (BIAcore 3000), mAb 1B7 immobilised on CM5 chip, toxin injected
T1 chain: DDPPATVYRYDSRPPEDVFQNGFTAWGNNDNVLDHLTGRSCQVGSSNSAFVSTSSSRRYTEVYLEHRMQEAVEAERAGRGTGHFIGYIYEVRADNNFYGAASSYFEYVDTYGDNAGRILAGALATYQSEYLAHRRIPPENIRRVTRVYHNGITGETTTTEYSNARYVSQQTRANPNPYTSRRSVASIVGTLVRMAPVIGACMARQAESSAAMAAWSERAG

[2] = target: T2, PTx-S1-220 H83A (Bordetella pertussis, UniProt P04977 35-254); test: as above
T2 chain: T1 chain with H83A, A210E

[3] = target: T3, PTx-S1-220 Y166A (Bordetella pertussis, UniProt P04977 35-254); test: as above
T3 chain: T1 chain with Y166A, A210E

[4] = target: T4, PTx-S1-220 R39A (Bordetella pertussis, UniProt P04977 35-254); test: as above
T4 chain: T1 chain with R39A, A210E

[5] = target: T5, PTx-S1-220 Y148A (Bordetella pertussis, UniProt P04977 35-254); test: as above
T5 chain: T1 chain with Y148A, A210E

[6] = target: T6, PTx-S1-220 N150A (Bordetella pertussis, UniProt P04977 35-254); test: as above
T6 chain: T1 chain with N150A, A210E

[7] = target: pertussis toxin subunit S3 (Bordetella pertussis, UniProt P04979 29-227); test: Western blot of B-oligomer and PTx
[8] = target: pertussis toxin subunit S4 (Bordetella pertussis, UniProt P0A3R5 43-152); test: Western blot of B-oligomer and PTx
[9] = target: pertussis toxin subunit S5 (Bordetella pertussis, UniProt P04981 35-133); test: Western blot of B-oligomer and PTx
[10] = target: pertussis toxin subunit S2 (Bordetella pertussis, UniProt P04978 28-226); test: Western blot of B-oligomer and PTx
[11] = target: T7, PTx-S1-220 Y8A (Bordetella pertussis, UniProt P04977 35-254); test: Western blot with mAb 1B7; paragraph 150 says 1B7 was unable to bind Y8A
T7 chain: T1 chain with Y8A, A210E

[12] = target: pertussis toxin B-oligomer (Bordetella pertussis, UniProt P04978 31-226; P04979 32-227; P0A3R5 43-152; P04981 36-133); test: ELISA repeated with mAb 1B7; EC50 as percent of the PTx reference
[13] = target: pertussis toxin holotoxin (Bordetella pertussis, UniProt P04977 35-269; P04978 31-226; P04979 32-227; P0A3R5 43-152; P04981 36-133); test: cell-based or functional assay

B1: murine monoclonal antibody 1B7 (antibody, V domains shown)
VH: EVQLQQSGSELVRPGASVKLSCKASGYKFTSYWMHWVKQRPGQGLEWIGNIFPGSGSTNYDEKFNSKATLTVDTSSNTAYMQLSSLTSEDSAVYYCTRWLSGAYFDYWGQGTTLTVSS
VL: DIQMTQSPALMSASPGEKVTMTCSASSSVSFMYWYQQKPRSSPKPWIYLTSNLPSGVPARFSGSGSGTSYSLTISSMEAEDAATYYCQQWSSHPPTFGSGTKLEIKR
notes: also called mAb 1B7; 1B7 mAb
koff [1]: 0.0016 s⁻¹ | koff [2]: 0.01 s⁻¹ | koff [3]: 0.0014 s⁻¹ | koff [4]: 0.003 s⁻¹ | koff [5]: 0.029 s⁻¹ | koff [6]: 0.008 s⁻¹ | binding result [7]: no binding | binding result [8]: no binding | binding result [9]: no binding | binding result [10]: no binding | binding result [11]: no binding | % EC50 PTx [12]: 30% | In Vitro Neutralization (nM), minimum protective concentration, CHO clustering assay [13]: 5.2 nM
